Results as given in patent US20210284749A1 (ABL BIO, published 2021).

Columns and labels:
[1] = molecular target: T1, recombinant human BCMA (ELISA antigen, construct not specified) (human, UniProt Q02223 1-54); assay: ELISA on coated recombinant human BCMA, antibody titrated, HRP anti-Fab detection, absorbance 450 nm
T1 construct: Fc 1-51; Fc/His 1-51; Fc 4-48) was coated in these ELISAs; also called recombinant BCMA; recombinant protein
T1 sequence: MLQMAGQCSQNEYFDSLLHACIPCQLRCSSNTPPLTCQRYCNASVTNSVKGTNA
Procedure: (§1) Using recombinant human BCMA or monkey BCMA as an antigen, and HRP-conjugated Fab polychronal antibody reagent (Pierce, 31414) as a secondary antibody, ELISA was performed as described in Example 1.3.

[2] = molecular target: T2, monkey (Rhesus) BCMA (1-53) fused to the Fc region of human IgG1 (monkey (Rhesus); human, UniProt Q02223 1-54); assay: ELISA on coated monkey (Rhesus) BCMA, antibody titrated, HRP anti-Fab detection, absorbance 450 nm
T2 construct: Sino Biological Inc. 90103-C02H; also called monkey BCMA; Monkey BCMA (1-53); not shown: Fc region of human IgG1
Procedure: as §1

human BCMA-Fc/His (1-51) = molecular target: T3, human BCMA-Fc/His (1-51) (human, UniProt Q02223 1-51); assay: BLI (Octet), antigen on Ni-NTA biosensor, IgG in solution
T3 construct: also called recombinant human BCMA-Fc/His; recombinant human BCMA-His (Sino Biological Inc.); not shown: Fc region; C-terminal His tag
T3 sequence: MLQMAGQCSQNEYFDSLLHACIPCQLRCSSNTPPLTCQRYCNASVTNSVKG
Procedure: A 96-well black microplate was mounted on a Biosensor tray case, 200 μl of 1XKB was added to each of the 8 wells, and then 8 Ni-NTA biosensors (Fortebio) were inserted thereto for hydration for 10 minutes. For antigen fixation, 5 μg/ml of recombinant human BCMA-His (Sino Biological Inc.) was diluted using 1XKB. Experiments were performed with a threshold of 0.5 to 1.0 nm, and Octet Data Acquisition 9.0 software was activated to create an Octet program template. The first step was for Baseline 1, the second step was for loading, and the threshold was fixed to 0.5 to 1.0 nm. In the third step, which was for Baseline 2, association for 5 minutes and dissociation for 20 minutes were performed. A plate temperature was fixed to 30° C., and the prepared buffer solution was placed in order into a new 96-well black microplate according to the Octet program template. 200 μl of 1XKB used as Baseline 1 and recombinant human BCMA-Fc/His which is an antigen to be loaded were diluted to 5 μg/ml, and 200 μl of the dilution was added thereto. After adding 200 μl of 1XKB used as Baseline 2, 200 μl of the antibody to be reacted with the antigen was dispensed, and the instrument was operated. After completion of the experiment, an association constant (kon), a dissociation constant (kdis), and an equilibrium dissociation constant (KD) for each antibody were analyzed and calculated with Octet Analysis 9.0 software.

[3] = molecular target: T4, rat BCMA (1-49) fused to the Fc region of human IgG1 (rat; human); assay: ELISA on 100 ng coated rat BCMA, antibody titrated, anti-human Fab HRP, absorbance 450 nm
T4 construct: Sino Biological Inc. 80156-R01H; also called 80156-R01H; not shown: Fc region of human IgG1
T4 chain: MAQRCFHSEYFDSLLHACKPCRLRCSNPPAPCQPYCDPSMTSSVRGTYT
Procedure: (§2) 100 ng of human, monkey, mouse, and rat BCMA antigens prepared in Example 1.1 were coated on the bottom of the plate, and then coated with 3% BSA to block nonspecific binding. Using the selected anti-BCMA IgG antibodies as primary antibodies, and the anti-human Fab HRP (1:20000 dilution) as a secondary antibody, ELISA assay was performed as described in Example 1.3.
(§3) Absorbancies at 450 nm measured with a microplate reader are shown in FIG. 3, and half maximal effective concentrations (EC₅₀) (nM) are shown in Table 9.

[4] = molecular target: T5, human BCMA expressed on cell surface (H929, OPM-2, CHOK1-hBCMA cells) (human, UniProt Q02223 1-184); assay: FACS on OPM-2 cells, 10 µg/ml antibody, anti-human Fc-FITC; open histogram shifted right of the filled control
T5 construct: also called cell-surface BCMA; BCMA on cell surface
T5 sequence: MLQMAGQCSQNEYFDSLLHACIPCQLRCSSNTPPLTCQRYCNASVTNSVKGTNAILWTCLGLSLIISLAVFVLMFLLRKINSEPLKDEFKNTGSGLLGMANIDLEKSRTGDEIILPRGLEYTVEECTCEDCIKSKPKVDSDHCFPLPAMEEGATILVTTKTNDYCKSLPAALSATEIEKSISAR
Procedure: (§4) Multiple myeloma cancer cells H929 (ATCC, CRL9068™) and OPM-2 cell line (DSMZ, ACC 50), which are known to express BCMA, were prepared, and human BCMA-overexpressed CHOK1-hBCMA cell line (constructed by ABIBio) were prepared.
(§5) 10 μg/ml of the seven IgG antibodies (B58, 5A6, 5D5, 5B5, 1H, 2G, and 5G) purified in Example 1.4 was added to the prepared cells, incubated at 4° C. for 1 hour, and then washed two times with a PBS buffer solution. The anti-human Fc-FITC was diluted in 1:400, incubated at 4° C. for 1 hour, and then washed with a PBS buffer solution. These processes were repeated. In FIGS. 2A and 2B, MFI indicates mean fluorescence intensity.

[5] = molecular target: T1, recombinant human BCMA (ELISA antigen, …); assay: ELISA, 100 ng coated antigen
Procedure: as §2, §3

[6] = molecular target: T1, recombinant human BCMA (ELISA antigen, …); assay: ELISA on 100 ng coated human BCMA, antibody titrated, anti-human Fab HRP, absorbance 450 nm
Procedure: as §2, §3

[7] = molecular target: T6, human BCMA-Fc (R&D system, 193-BC-050) (human, UniProt Q02223 1-54, limits assumed); assay: competition ELISA on coated human BCMA-Fc; antibody titrated and mixed with 200 ng/ml BAFF, bound BAFF detected, absorbance 450 nm
T6 construct: Bought construct; not shown: Fc part
T6 sequence: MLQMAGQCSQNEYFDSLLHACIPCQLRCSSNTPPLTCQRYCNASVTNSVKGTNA
Procedure: Specifically, human BCMA-Fc (R&D system, 193-BC-050) was diluted using a PBS buffer, and then 100 ng of the dilution per well was coated on the ELISA plate. After the coating, the plate was emptied, and 100 μl of PBST containing 1% BSA was added to each well and incubated at 37° C. for 2 hours. The antibodies diluted at a concentration of 50 μg/ml to 0.00028 μg/ml were mixed with 10 ng/ml of APRIL protein (R&D, 5860-AP-010/CF) or 200 ng/ml of BAFF (R&D, 2149-BF-010/CF). An IgG1 antibody was used as a negative control, and a J6MO antibody was used as a comparative group.
Using anti-HA-HRP (Roche, 12013819001) or anti-His-HRP (Roche, 11965085001) as secondary antibodies, ELISA assay was performed as described in Example 1.4(1). As a comparative group, anti-BCMA monoclonal antibody J6MO (GSK) was used.

[8] = molecular target: T5, human BCMA expressed on cell surface …; assay: FACS on H929 cells, 10 µg/ml antibody, anti-human Fc-FITC; open histogram shifted right of the filled control
Procedure: as §4, §5

[9] = molecular target: T1, recombinant human BCMA (ELISA antigen, …); assay: ELISA on coated recombinant human BCMA, antibody titrated, HRP anti-Fab detection, absorbance 450 nm; remark: listed apart in the source
Procedure: Specific binding abilities of the anti-BCMA IgG antibodies isolated in Example 1.4 to recombinant BCMA protein were analyzed by ELISA.
as §1

[10] = molecular target: T7, mouse BCMA (1-49) fused to the Fc region of human IgG1 (mouse; human, UniProt O88472 1-49); assay: ELISA on 100 ng coated mouse BCMA, antibody titrated, anti-human Fab HRP, absorbance 450 nm
T7 construct: Sino Biological Inc. 50076-M01H; also called 50076-M01H; not shown: Fc region of human IgG1
T7 chain: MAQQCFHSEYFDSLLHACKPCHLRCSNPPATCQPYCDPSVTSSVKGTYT
Procedure: as §2, §3

[11] = molecular target: T2, monkey (Rhesus) BCMA (1-53) fused to …; assay: ELISA on 100 ng coated rhesus BCMA, antibody titrated, anti-human Fab HRP, absorbance 450 nm
Procedure: as §2, §3

[12] = molecular target: T2, monkey (Rhesus) BCMA (1-53) fused to …; assay: BLI (Octet), monkey BCMA
[13] = molecular target: T4, rat BCMA (1-49) fused to the Fc region …; assay: ELISA, 100 ng coated antigen
Procedure: as §2, §3

[14] = molecular target: T2, monkey (Rhesus) BCMA (1-53) fused to …; assay: ELISA, 100 ng coated antigen
Procedure: as §2, §3

[15] = molecular target: T7, mouse BCMA (1-49) fused to the Fc …; assay: ELISA, 100 ng coated antigen
Procedure: as §2, §3

Binder | EC50 (read off the curve) [1] [µg/mL] | Kd (human BCMA-Fc/His (1-51)) [nM] | koff (human BCMA-Fc/His (1-51)) [s⁻¹] | kon (human BCMA-Fc/His (1-51)) [M⁻¹ s⁻¹] | MFI [4] | EC50 [5] [nM] | EC50 (read off the curve) [6] [µg/mL] | MFI [8] | EC50 (read off the curve) [9] [µg/mL] | further results
anti-BCMA IgG antibody 1H (antibody, V domains shown) VH: EVQLVESGGGLVQPGGSLRLSCAASGFTFSNYAMSWVRQAPGKGLEWVSGISHSGSSTYYADSVKGRFTISRDNSKNTLYLQMNSLRAEDTAVYYCAKHVYIIEFESLDIWGQGTLVTVSS VL: not shown | ~0.08 | 1.45 | 0.000592 | 409000 | – | – | – | – | – | EC50 (read off the curve) [2]: ~0.2 µg/mL
anti-BCMA IgG antibody 2G (antibody, V domains shown) VH: EVQLVESGGGLVQPGGSLRLSCAASGFTFSNYAMSWVRQAPGKGLEWVSAISSSGSTIYYADSVKGRFTISRDNSKNTLYLQMNSLRAEDTAVYYCAKAGYYGSIYAFDYWGQGTLVTVSS VL: DIQMTQSPSSLSASVGDRVTITCRASQSISSYLNWYQQKPGKAPKLLIYATSRLQSGVPSRFSGSGSGTDFTLTISSLQPEDFATYYCQQSSSFPWTFGQGTKVEIKR | ~0.04 | 1.08 | 0.00078 | 720000 | – | – | – | – | – | binding result [2]: binds
anti-BCMA IgG antibody B58 (antibody, V domains shown, also called B58 antibody) VH: EVQLLESGGGLVQPGGSLRLSCAASGFTFSNYDMSWVRQAPGKGLEWVSWIYPSDSSIYYADSVKGRFTISRDNSKNTLYLQMNSLRAEDTAVYYCARGPFANKYRQFDYWGQGTLVTVSS VL: QSVLTQPPSASGTPGQRVTISCSGSSSNIGSNSVSWYQQLPGTAPKLLIYADSKRPSGVPDRFSGSKSGTSASLAISGLRSEDEADYYCGSWDYSLSGYVFGGGTKLTVL | – | 0.0273 | 2e-05 | 735000 | 23.6 | 79 | ~0.01 | 80.7 | ~0.005 | binding result [3]: no binding (tested: about 30 µg/ml); IC50 (read off the curve) [7]: ~5 nM; binding result [10]: no binding (tested: about 30 µg/ml)
anti-BCMA IgG antibody 5B5 (antibody, V domains shown, also called 5B5 antibody) VH: EVQLLESGGGLVQPGGSLRLSCAASGFTFSGHYWSWVRQAPGKGLEWVSTVSGSGGDTFYADSVKGRFTISRDNSKNTLYLQMNSLRAEDTAVYYCARGHSVMDVWGQGTLVTVSS VL: EIVLTQSPGTLSLSPGERATLSCRASQGIDSYVAWYQQKPGQAPRLLIYDASLRATGIPDRFSGSGSGTDFTLTISRLEPEDFAVYYCQQYNSWPITFGQGTKLEIKR | – | 0.202 | 0.00025 | 1.24e+06 | 20.9 | 63 | ~0.01 | 37.4 | ~0.1 | EC50 (read off the curve) [11]: ~0.01 µg/mL; EC50 (read off the curve) [3]: ~0.02 µg/mL; Kd [12]: 0.461 nM; koff [12]: 0.00221 s⁻¹; kon [12]: 4.79e+06 M⁻¹ s⁻¹; EC50 [13]: 65 nM; EC50 [14]: 82 nM; EC50 [15]: 110 nM; EC50 (read off the curve) [10]: ~0.01 µg/mL
